{
  "source": "paper PMC5727402",
  "about": "“Structure of the large terminase from a hyperthermophilic virus reveals a unique mechanism for oligomerization and ATP hydrolysis” (Nucleic Acids Research, 2017)",
  "key": {"[1]": {"molecular_target": "T1, full-length D6E large terminase (1–427) (synthetic construct, UniProt Z9WCS4P2M6)", "T1 construct": "full length residues 1-427; N-terminal His6-3C tag cleaved; codon-optimized synthetic gene, E. coli BL21-Gold(DE3); monomer by SEC, monomer to pentamer by AUC, active oligomer proposed pentameric", "T1 sequence (Z9WCS4P2M6 4-430)": "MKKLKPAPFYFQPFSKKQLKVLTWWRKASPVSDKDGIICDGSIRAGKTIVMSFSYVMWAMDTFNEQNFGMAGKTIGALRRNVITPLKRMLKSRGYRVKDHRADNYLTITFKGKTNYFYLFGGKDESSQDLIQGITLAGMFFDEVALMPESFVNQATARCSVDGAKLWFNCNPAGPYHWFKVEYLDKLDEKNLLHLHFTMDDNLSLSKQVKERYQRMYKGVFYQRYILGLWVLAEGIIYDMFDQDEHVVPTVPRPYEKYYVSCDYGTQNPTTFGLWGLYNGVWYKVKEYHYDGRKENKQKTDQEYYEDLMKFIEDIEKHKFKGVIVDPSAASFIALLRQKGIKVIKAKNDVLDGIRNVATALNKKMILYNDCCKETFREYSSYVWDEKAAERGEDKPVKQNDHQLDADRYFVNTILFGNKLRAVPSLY", "assay": "thermal shift assay (SYPRO Orange)", "type": "binding", "settings": "5 mM nucleotide, 5 mM MgCl2, 5 mM HEPES pH 7.5, 5 mM potassium glutamate, 5 μM protein"}, "[2]": {"system": "Nc1ncnc2c1ncn2[C@@H]1O[C@H](COP(=O)(O)OP(=O)(O)OP(=O)(O)O)[C@@H](O)[C@H]1O", "assay": "purified protein", "settings": "10 mM HEPES pH 7.5, 50 mM potassium glutamate, 10 mM MgCl2, room temperature, 4.5 μM protein"}, "[3]": {"molecular_target": "D6E large terminase ATPase domain (1–234) (Geobacillus stearothermophilus bacteriophage D6E)", "assay": "SEC; ATPase domain alone (Supplementary Figure S1C); conditions not shown"}},
  "note": "“And” between values parts separate entries of the source, which are not always exact repeats. Equal values may be shown once.",
  "data": [
    {"molecule": "Nc1ncnc2c1ncn2[C@@H]1O[C@H](COP(=O)(O)OP(=O)(O)O)[C@@H](O)[C@H]1O", "note": "[ADP]", "values": [
      {"measurement": "ΔTm", "setting": "[1]", "result": 2.3, "unit": "°C"}
    ]},
    {"molecule": "Nc1ncnc2c1ncn2[C@@H]1O[C@H](COP(=O)(O)OP(=O)(O)OP(O)(O)=S)[C@@H](O)[C@H]1O", "note": "[ATP-γ-S]", "values": [
      {"measurement": "ΔTm", "setting": "[1]", "result": 7.8, "unit": "°C"}
    ]},
    {"molecule": "C-terminally truncated protein (1–417) (synthetic construct)", "values": [
      {"measurement": "Km", "setting": "[2]", "result": "196.72 ± 8.0", "unit": "µM"},
      {"measurement": "kcat", "setting": "[2]", "result": "0.0583 ± 0.00067", "unit": "s⁻¹"}
    ]},
    {"molecule": "D6E large terminase ATPase domain (1–234) (domain or fragment)", "values": [
      {"measurement": "stoichiometry N", "setting": "[3]", "result": "4 and 5"}
    ]}
  ]
}
